{"source": "paper PMC13379273", "about": "(Advanced Science, 2026)", "proteins": {"B1": {"name": "Hendra virus W protein (W^HeV), wild type (natural protein)", "chain": "MDKLDLVNDGLDIIDFIQKNQKEIQKTYGRSSIQQPSTKDRTRAWEDFLQSTSGEHEQAEGGMPKNDGGTEGRNVEDLSSVTSSDGTIGQRVSNTRAWAEDPDDIQLDPMVTDVVYHDHGGECTGHGPSSSPERGWSYHMSGTHDGNVRAVPDTKVLPNAPKTTVPEEVREIDLIGLEDKFASAGLNPAAVPFVPKNQSTPTEEPPVIPEYYYGSGRRGDLSKSPPRGNVNLDSIKIYTSDDEDENQLEYEDEFAKSSSEVVIDTTPEDNDSINQEEVVGDPSDQGLEHPFPLGKFPEKEETPDVRRKDSLMQDSCKRGGVPKRLPMLSEEFECSGSDDPIIQELEREGSHPGGSLRLREPPQSSGNSRNQPDRQLKTGDAASPGGVQRPGTPMPKSRIMPIKKGAQTRSLNMLGRKTCLGRRVVQPGMFADYPPTKKARVLLRRMSN"}}, "molecular_target": "the molecule itself", "test": "SEC; […] (20 mM HEPES, 150 mM NaCl pH 7.2), room temperature; […]"}
{"protein": "B1", "values": [{"measurement": "binding result", "value": "binds"}]}
